Source: article PMC10397247
Each block holds one binder with its values, some of them ahead of it.

Assays:
Experiment in all cases: two-hybrid library CCNG1;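 further: natural log of median RNA to DNA barcode read ratio; higher means stronger binding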
4H2729-bN = molecular target: T1, 4H2729-bN
T1 chain: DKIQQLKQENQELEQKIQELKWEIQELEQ

4H3112-bN = molecular target: T2, 4H3112-bN
T2 chain: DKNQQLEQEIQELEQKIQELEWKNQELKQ

4H3185-bN = molecular target: T3, 4H3185-bN
T3 chain: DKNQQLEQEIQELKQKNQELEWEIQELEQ

4H331-bN = molecular target: T4, 4H331-bN
T4 chain: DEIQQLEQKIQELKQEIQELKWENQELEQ

4H3354-bN = molecular target: T5, 4H3354-bN
T5 chain: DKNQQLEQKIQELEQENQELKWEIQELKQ

4H338-bN = molecular target: T6, 4H338-bN
T6 chain: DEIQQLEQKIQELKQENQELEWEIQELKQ

4H3427-bN = molecular target: T7, 4H3427-bN
T7 chain: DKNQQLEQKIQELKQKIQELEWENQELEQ

4H3782-bN = molecular target: T8, 4H3782-bN
T8 chain: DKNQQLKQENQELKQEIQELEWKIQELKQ

4H3817-bN = molecular target: T9, 4H3817-bN
T9 chain: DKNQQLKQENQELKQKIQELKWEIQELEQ

4H3855-bN = molecular target: T10, 4H3855-bN
T10 chain: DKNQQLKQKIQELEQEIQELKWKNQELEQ

4H4001-bN = molecular target: T11, 4H4001-bN
T11 chain: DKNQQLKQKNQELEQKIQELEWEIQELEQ

4H454-bN = molecular target: T12, 4H454-bN
T12 chain: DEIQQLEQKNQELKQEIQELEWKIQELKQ

4H568-bN = molecular target: T13, 4H568-bN
T13 chain: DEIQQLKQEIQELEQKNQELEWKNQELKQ

4H607-bN = molecular target: T14, 4H607-bN
T14 chain: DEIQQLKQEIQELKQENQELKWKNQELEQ

4H687-bN = molecular target: T15, 4H687-bN
T15 chain: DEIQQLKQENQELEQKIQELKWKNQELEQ

4H717-bN = molecular target: T16, 4H717-bN
T16 chain: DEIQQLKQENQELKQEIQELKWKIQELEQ

4H72-bN = molecular target: T17, 4H72-bN
T17 chain: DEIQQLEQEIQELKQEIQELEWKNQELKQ

4H754-bN = molecular target: T18, 4H754-bN
T18 chain: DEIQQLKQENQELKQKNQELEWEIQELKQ

4H797-bN = molecular target: T19, 4H797-bN
T19 chain: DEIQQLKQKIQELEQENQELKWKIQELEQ

4H883-bN = molecular target: T20, 4H883-bN
T20 chain: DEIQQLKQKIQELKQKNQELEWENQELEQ

4H908-bN = molecular target: T21, 4H908-bN
T21 chain: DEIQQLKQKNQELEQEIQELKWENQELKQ

4H918-bN = molecular target: T22, 4H918-bN
T22 chain: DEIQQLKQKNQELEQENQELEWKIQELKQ

4H953-bN = molecular target: T23, 4H953-bN
T23 chain: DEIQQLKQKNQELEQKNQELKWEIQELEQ

4H967-bN = molecular target: T24, 4H967-bN
T24 chain: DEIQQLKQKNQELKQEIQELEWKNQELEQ

4H2729-bH = molecular target: T25, 4H2729-bH
T25 chain: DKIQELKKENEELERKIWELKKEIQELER

4H3112-bH = molecular target: T26, 4H3112-bH
T26 chain: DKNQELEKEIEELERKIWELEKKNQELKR

4H3185-bH = molecular target: T27, 4H3185-bH
T27 chain: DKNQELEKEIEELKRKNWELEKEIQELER

4H331-bH = molecular target: T28, 4H331-bH
T28 chain: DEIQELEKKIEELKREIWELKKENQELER

4H3354-bH = molecular target: T29, 4H3354-bH
T29 chain: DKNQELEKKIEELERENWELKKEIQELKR

4H338-bH = molecular target: T30, 4H338-bH
T30 chain: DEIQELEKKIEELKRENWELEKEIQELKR

4H3427-bH = molecular target: T31, 4H3427-bH
T31 chain: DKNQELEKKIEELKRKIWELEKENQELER

4H3782-bH = molecular target: T32, 4H3782-bH
T32 chain: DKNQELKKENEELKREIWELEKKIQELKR

4H3855-bH = molecular target: T33, 4H3855-bH
T33 chain: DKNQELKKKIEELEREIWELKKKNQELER

4H4001-bH = molecular target: T34, 4H4001-bH
T34 chain: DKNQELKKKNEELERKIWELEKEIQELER

4H454-bH = molecular target: T35, 4H454-bH
T35 chain: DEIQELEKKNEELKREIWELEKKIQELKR

4H568-bH = molecular target: T36, 4H568-bH
T36 chain: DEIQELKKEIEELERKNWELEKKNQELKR

4H607-bH = molecular target: T37, 4H607-bH
T37 chain: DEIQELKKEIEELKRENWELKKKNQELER

4H687-bH = molecular target: T38, 4H687-bH
T38 chain: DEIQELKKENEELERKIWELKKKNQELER

4H717-bH = molecular target: T39, 4H717-bH
T39 chain: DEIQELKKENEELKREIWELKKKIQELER

4H72-bH = molecular target: T40, 4H72-bH
T40 chain: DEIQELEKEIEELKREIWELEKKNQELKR

4H754-bH = molecular target: T41, 4H754-bH
T41 chain: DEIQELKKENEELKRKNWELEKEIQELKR

4H797-bH = molecular target: T42, 4H797-bH
T42 chain: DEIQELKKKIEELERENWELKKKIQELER

4H883-bH = molecular target: T43, 4H883-bH
T43 chain: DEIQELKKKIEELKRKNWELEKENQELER

4H908-bH = molecular target: T44, 4H908-bH
T44 chain: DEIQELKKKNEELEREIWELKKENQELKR

4H918-bH = molecular target: T45, 4H918-bH
T45 chain: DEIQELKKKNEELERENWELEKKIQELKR

4H953-bH = molecular target: T46, 4H953-bH
T46 chain: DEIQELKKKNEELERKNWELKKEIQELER

4H967-bH = molecular target: T47, 4H967-bH
T47 chain: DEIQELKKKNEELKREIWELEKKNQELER

- interaction score (4H2729-bN): -1.82
- interaction score (4H3112-bN): -0.365
- interaction score (4H3185-bN): -0.905
- interaction score (4H331-bN): -1.39
- interaction score (4H3354-bN): -0.621
- interaction score (4H338-bN): -1.12
- interaction score (4H3427-bN): -1.07
- interaction score (4H3782-bN): -0.911
- interaction score (4H3817-bN): -0.912
- interaction score (4H3855-bN): -0.181
- interaction score (4H4001-bN): -1.4
- interaction score (4H454-bN): 1.43
- interaction score (4H568-bN): -1.47
- interaction score (4H607-bN): -1.28
- interaction score (4H687-bN): -0.901
- interaction score (4H717-bN): -1.59
- interaction score (4H72-bN): -1.09
- interaction score (4H754-bN): -0.565
- interaction score (4H797-bN): -1.01
- interaction score (4H883-bN): -2.01
- interaction score (4H908-bN): -1.64
- interaction score (4H918-bN): -0.584
- interaction score (4H953-bN): -0.965
- interaction score (4H967-bN): -0.995
Binder: DKIQQLKQENQELEQKIQELKWEIQELEQ [4H2729-bN]

- interaction score (4H2729-bH): 1.2
- interaction score (4H3112-bH): 0.258
- interaction score (4H3185-bH): -3.12
- interaction score (4H331-bH): -1.61
- interaction score (4H3354-bH): -0.446
- interaction score (4H338-bH): -0.279
- interaction score (4H3427-bH): 0.368
- interaction score (4H3782-bH): 0.82
- interaction score (4H3855-bH): 0.286
- interaction score (4H4001-bH): -0.467
- interaction score (4H454-bH): 1.36
- interaction score (4H568-bH): -0.0225
- interaction score (4H607-bH): -1.66
- interaction score (4H687-bH): -0.723
- interaction score (4H717-bH): -0.127
- interaction score (4H72-bH): -1.03
- interaction score (4H754-bH): 0.0247
- interaction score (4H797-bH): -0.381
- interaction score (4H883-bH): -0.885
- interaction score (4H908-bH): -0.811
- interaction score (4H918-bH): 0.482
- interaction score (4H953-bH): -0.638
- interaction score (4H967-bH): 0.548
Binder: DKIQELKKENEELERKIWELKKEIQELER [4H2729-bH]
